One experiment relates to human PBMCs. Nature of the experiment: Soluble CD28 generation by SEB or CMV stimulated PBMCs, human CD28 ELISA. The format is cell-based. How it is done: (§1) ELISA—Commercial ELISA kits were used for quantitation of the amount of human interferon-gamma (Biolegend, Cat. No. 430103), human interleukin 2 (Biolegend, Cat. No. 431802), human interleukin 6 (Biolegend, Cat. No. 430502), human interleukin 10 (Biolegend, Cat. No. 430603), human […] beta 1 (Biolegend, Cat. No. 436708), human interleukin beta 1 (Biolegend, Cat. No. 437004) and human CD28 (R&D system, Cat. No. DY342). Cell Proliferation and viability (MTT assay) was conducted according to manufacturer instructions (Roche, cat #11465007001). Kynurenine (IDO activity) ELISA kit was conducted according to manufacturer instructions (ImmuSmo Cat #BA E-2200).
(§2) Protease Inhibitors—Protease inhibitors were added at the indicated concentrations at the start of each experiment. In week long assays another portion of the inhibitors was added after 3 days at the final concentration. […] Where mentioned the protease cocktail was composed with a mixture of TAPI-1 and GM6001 at equimolar ratio.
SEB or CMV activation of PBMCs for the generation of soluble CD28—0.3×10^6 PBMCs were stimulated with 0.5 ng/mL SEB (Sigma, Cat. No. S4881) for 5-7 days at 37° C. with/without the indicated concentration of various protease inhibitors in 48 well plate. Alternatively, 0.1×10^6 PBMCs were stimulated with 0.5 ng/mL SEB in 96 well plate format assay. For CMV stimulation 0.5×10^6 PBMCs were stimulated with 0.5 μg/mL CMV peptivator (Milteny Biotec, Cat. No. 130-093-435) for 2-5 days at 37° C. with/without the indicated concentration of various protease inhibitors in a 96 well plate. For continuous shedding experiments PBMC were stimulated with SEB or CMV in 24 well plate for 24 hr, cells were taken and washed three times with RPMI without stimulant and plated again in a 96 well plate. Samples were taken at indicated times and put under freezing conditions until examination for soluble CD28.
In general terms: ELISA stands for enzyme-linked immunosorbent assay.

The next experiment concerns Jurkat T cell line. Nature of the experiment: Soluble CD28 generation by PHA activated Jurkat T cell line, CD28 ELISA. The format is cell-based, human. The note with it: PHA 1-4 μg/mL, TAPI-1 and GM6001 cocktail 0.5-2 μM. The method, then: as §1, §2
(§3) PHA activation of CD4 T cells or Jurkat T cell line for the generation of soluble CD28—1×10^5 Jurkat cells or CD4 T cells were incubated with the indicated concentration of Phytohemagglutinin (Sigma, Cat. No. L8902) and various protease inhibitors for additional 5 (Jurkat) or 7 days (CD4 T cells).

The subject of another experiment is human CD4 T cells. Put plainly: Soluble CD28 generation by PHA activated CD4 T cells, CD28 ELISA. The format is cell-based. Conditions: PHA 1-4 μg/mL, TAPI-1 and GM6001 cocktail 0.5-2 μM. How it is done: as §1, §2, §3
Experiment [1] deals with isolated CD3 human T cells. Nature of the experiment: CD3 T cells stimulation with anti-CD3 OKT3, IFN gamma secretion. The format is cell-based. Conditions: for IFNγ secretion (agonism): anti-CD3 stimulation, CD28.2 2.0 μg/mL, antibodies 0.1-10 μg/mL. The method, then: T cells stimulation with OKT3—0.1×10^6 isolated CD3 T cells (from healthy donors) were stimulated with indicated amount of anti-CD3 clone OKT3 for 48-72 hr at 37° C. When stated recombinant human CD80-Fc (2 μg/mL, R&D system) was added in soluble form. Antibodies to CD28 or controls were added at the indicated concentration in soluble form.
CD80 is one of the two main ligands for mCD28 along with CD86. The extracellular domain of CD80 fused to an Fc moiety has been used as an immune stimulatory molecule and is under investigation as a cancer therapy. In order to examine the effect of sCD28 on CD80-Fc efficacy, isolated CD3 human T cells were stimulated with plate bound anti-CD3 antibody (OKT3, 2 μg/mL) in the presence of 2 μg/mL soluble recombinant human CD80-Fc.

The target of experiment [2] is T1, mCD28 (Homo sapiens, UniProt P10747).
T1 construct: expressed in transfected cells
Put plainly: CD86 blocking FACS on HEK293 cells stably transfected with human CD28. The format is binding. The note with it: CD86-Fc 5 μg/mL; antibody 20 μg/mL. The method, then:
CD86 blocking FACS—0.5×10^6 HEK293 cells stably transfected with human CD28 were incubated with 5 μg/mL CD86-Fc (R&D systems, Cat. No. 141-B2) without or with anti CD28 antibodies (20 μg/mL) for 30 min in room temperature. Cells were washed and taken for secondary binding using anti-human heavy and light chains antibody conjugated to fluorophore at 1:5000 dilution for 20 min on ice.

The target of experiment [3] is T1, mCD28. Put plainly: FACS binding to mCD28 on naïve CD3 T cells. Conditions: antibody 20 μg/mL. The method, then: Flow Cytometry—Generally, cells were kept on ice during all steps. Prior to staining, 5×10^5 cells were blocked with 50 μg/mL human IgG (Sigma, Cat. No. 14506) in FACS buffer (PBS with 0.1% BSA) for 15 min. Antibodies were used at concentrations recommended by the manufacturer and incubated for 30 min. in the dark. Incubations were done in a volume of 100 μL in 96-well U bottom plates. Cells were washed twice with 200 μL of FACS buffer and transferred to FACS tubes in 150 μL of FACS buffer for analysis. Cells were analyzed on a Gallios Flow Cytometer (Beckman Coulter) using the Kaluza for Gallios Flow Cytometry Acquisition Software.
Lastly, the ability of antibodies #1-3 to bind to mCD28 at all was examined. While it is not essential that a sCD28 antibody not bind mCD28 it is advantageous. Such an antibody could be used for specific detection of the soluble protein, and if used therapeutically would have no effect on the membranal form. Naïve isolated CD3 T cells were evaluated by FACs to assay mCD28 binding. Cells were incubated with antibodies #1-3 (20 μg/mL dark grey histograms) or isotype controls (mIgG, 20 μg/mL, light grey histograms). Binding detection was performed with Alexa Fluor 647-conjugated goat anti mouse secondary antibody.
(A flow cytometer gives signals particle by particle.)

A further experiment concerns sCD28. Put plainly: Simulated sweeping of soluble CD28 from plasma with antibody coated magnetic beads. Conditions: for sCD28 levels in plasma after beads: about 1.5 μg on beads. More on the design: species or system human. How it is done:
Simulated sweeping of soluble CD28 from plasma of cancer patient. Antibodies or recombinant proteins were coated on tosyl-activated magnetic beads (Invitrogen, Cat. No. DY-14203) as described by manufacturer protocol. […] The mixture was incubated in a thermomixer for 2 hr, 1000 RPM at 37° C., followed by removal of the beads using a DynaMag magnet (Invitrogen, Cat. No. 12321D) and the samples were examined using CD28 specific ELISA.
Varying amounts (0.125-2 μg) of antibodies #1 and #2 were loaded onto tosyl-activated magnetic beads according to the manufacturer's protocol (Thermo Fisher Scientific). The loaded beads were then added to plasma samples from a cancer patient, and the mixture was incubated in a thermomixer at 37° C. for 2 hours at 1000 RPM. The beads were isolated and removed from the plasma with a magnet and the amount of sCD28 remaining in the serum was measured by ELISA.
Antibody #1 was further tested on various cancer samples (melanoma, colorectal and ovarian) and compared to three B7 molecules which are known ligands of CD28. About 1.5 μg of antibody #1, CD80, CD86 and ICOSL were each loaded onto tosyl-activated magnetic beads and the beads were mixed with plasma as before. A colorectal sample (FIG. 16C), as well as two melanoma samples (FIG. 16D-E), an ovarian sample (FIG. 16F) and a sample from a healthy donor (FIG. 16G) were all tested.

In another experiment the target is T2, recombinant human CD28 (Homo sapiens, UniProt P10747).
T2 construct: recombinant human CD28 lacking the transmembrane and cytoplasmic domains; purchased R&D 342-CD
Nature of the experiment: Direct CD28 ELISA on recombinant human CD28. The format is binding.

Consider `CNC(=O)[C@@H](NC(=O)[C@H](CCCc1ccccc1)[C@H](C)N(O)C=O)C(C)(C)C` [GI254023X], for which the “sCD28 release from activated immune cells” value with human PBMCs (PBMCs, SEB 1 ng/mL, inhibitor 0.01-1 μM) is on record as “almost complete inhibition of sCD28 release”. Besides, the “sCD28 levels detected with antibodies of the invention” value with human PBMCs (stimulated cells with protease inhibitors, sandwich ELISA) was “Lower levels of sCD28”.

On to `CNC(=O)[C@H](Cc1c[nH]c2ccccc12)NC(=O)[C@@H](CC(=O)NO)CC(C)C` [GM6001], for which the “amount of sCD28 in supernatant” value in the experiment on Jurkat T cell line and in the experiment on human CD4 T cells was “diminished the amount of sCD28” throughout. Further, the “amount of sCD28 in culture” value with human PBMCs (PBMCs stimulated with SEB or CMV, TAPI-1 and GM6001 protease inhibitor cocktail) is given as “diminish the amount of sCD28 in a dose dependent manner”.

B1: CD80-Fc: extracellular domain of CD80 fused to an Fc moiety (protein)
chain: VIHVTKEVKEVATLSCGHNVSVEELAQTRIYWQKEKKMVLTMMSGDMNIWPEYKNRTIFDITNNLSIVILALRPSDEGTYECVVLKYEKDAFKREHLAEVTLSVKADFPTPSISDFEIPTSNIRRIICSTSGGFPEPHLSWLENGEELNAINTTVSQDPETELYAVSSKLDFNMTTNHSFMCLIKYGHLRVNQTFNWNTTKQEHFPDN
modifications: left off: a dimerising Fc or GST
notes: extracellular domain of CD80 fused to an Fc moiety
B1: the IFN gamma secretion entry in experiment [1] (plate bound OKT3 2 μg/mL, CD80-Fc 2 μg/mL) is reported as “increased IFN gamma secretion”.

B2: antibody #3: sCD28 binding (sweeping) antibody; heavy chain SEQ ID NO: 50, light chain SEQ ID NO: 52 (antibody)
heavy: EVQLQQFGAELVKPGASVKISCKASGYTFTDYNMDWVKQSHGKSLEWIGDINPNYDSTAYNQKFMGKATLTVDKSSNTAYMELRSLTSEDTAVYYCARSSPYYDSNHFDYWGQGTSLTVSSAKTTPPSVYPLAPGSAAQTNSMVTLGCLVKGYFPEPVTVTWNSGSLSSGVHTFPAVLQSDLYTLSSSVTVPSSTWPSETVTCNVAHPASSTKVDKKIVPRDCGCKPCICTVPEVSSVFIFPPKPKDVLTITLTPKVTCVVVDISKDDPEVQFSWFVDDVEVHTAQTQPREEQFNSTFRSVSELPIMHQDWLNGKEFKCRVNSAAFPAPIEKTISKTKGRPKAPQVYTIPPPKEQMAKDKVSLTCMITDFFPEDITVEWQWNGQPAENYKNTQPIMDTDGSYFVYSKLNVQKSNWEAGNTFTCSVLHEGLHNHHTEKSLSHSPGK
light: QIVLTQSPAIMSASPGEKVTMTCSARSSINYMHWFQQKPGTSPKRWIYDTSKLASGVPARFSGSGSGTSYSLTISNMEAEDAATYYCHQRNSYPFTFGSGTKLEIKRADAAPTVSIFPPSSEQLTSGGASVVCFLNNFYPKDINVKWKIDGSERQNGVLNSWTDQDSKDSTYSMSSTLTLTKDEYERHNSYTCEATHKTSTSPIVKSFNRNEC
With B2, the “CD86 binding to mCD28” value with mCD28 [2] was “none of antibody #1 (FIG. 15B), antibody #2 (FIG. 15C), or antibody #3 (FIG. 15D) blocked binding of CD86 to mCD28”. For the same molecule, the “binding to mCD28 on the cell surface” value in the experiment with mCD28 [3] is given as “do not bind CD28 on the cell surface”. In experiment [1], the “IFNγ secretion (agonism)” value was “no effect on IFN secretion”.

B3: antibody #1: sCD28 binding (sweeping) antibody; heavy chain SEQ ID NO: 42, light chain SEQ ID NO: 44 (antibody)
heavy: QIQLVQSGPELKKPGETVKISCKASGYTLTNYGMNWVKQAPGKGLKWMGWINTYTGKPTYVDDFKGRFAFSLETSASTAYLQINNLKNEDTATYFCARGDANQQFAYWGQGTLVTVSAAKTTPPSVYPLAPGSAAQTNSMVTLGCLVKGYFPEPVTVTWNSGSLSSGVHTFPAVLQSDLYTLSSSVTVPSSTWPSETVTCNVAHPASSTKVDKKIVPRDCGCKPCICTVPEVSSVFIFPPKPKDVLTITLTPKVTCVVVDISKDDPEVQFSWFVDDVEVHTAQTQPREEQFNSTFRSVSELPIMHQDWLNGKEFKCRVNSAAFPAPIEKTISKTKGRPKAPQVYTIPPPKEQMAKDKVSLTCMITDFFPEDITVEWQWNGQPAENYKNTQPIMDTDGSYFVYSKLNVQKSNWEAGNTFTCSVLHEGLHNHHTEKSLSHSPGK
light: DIKMTQSPSSMYASLGERVTITCKASQDINSYLSWFQQKPGKSPKTLIYRANRLVDGVPSRFSGSGSGQDYSLTISSLEYDDMGIYYCLQYDEFPPTFGAGTKLELKRADAAPTVSIFPPSSEQLTSGGASVVCFLNNFYPKDINVKWKIDGSERQNGVLNSWTDQDSKDSTYSMSSTLTLTKDEYERHNSYTCEATHKTSTSPIVKSFNRNEC
With B3, in the experiment with sCD28 (about 1.5 μg each on beads), the “comparison with CD80, CD86 and ICOSL” value is recorded as “superior to the other three molecules tested”. Besides, the “sCD28 levels in plasma after beads” value is on record as “at or below the levels observed in the healthy sample” in the experiment with sCD28 (all cases) and “nearly undetectable levels” in the experiment with sCD28 (all samples except one melanoma sample). Also, the “removal of sCD28 from plasma” value in the experiment on sCD28 (cancer patient plasma, 0.125-2 μg antibody on beads, 37° C. 2 hours) is “capable of binding and removing sCD28 from plasma”. In addition, the “reduction of sCD28” value in the experiment with sCD28 (one of the melanoma samples (FIG. 16D)) is reported as “greater than 50%”. Further, in the experiment with mCD28 [2], the “CD86 binding to mCD28” value is listed as “none of antibody #1 (FIG. 15B), antibody #2 (FIG. 15C), or antibody #3 (FIG. 15D) blocked binding of CD86 to mCD28”. Also, in the experiment with mCD28 [3], the “binding to mCD28 on the cell surface” value is “bound mCD28”. Moreover, in experiment [1], the “IFNγ secretion (agonism)” value is recorded as “no effect on IFN secretion”. For the same molecule, the “detection compared to CD28.2” value with recombinant human CD28 was “nearly ten-times greater detection”. The “binding to sCD28” value in the experiment with recombinant human CD28 (immobilized recombinant human sCD28) was “much stronger binding to sCD28”.

The record behind these values is patent US12139534B2, “Methods and compositions for decreasing soluble immune receptor CD28” (BIOND BIOLOGICS LTD., priority 2018, dated 2024).
